For one data set, the target named is T1, HMGB1:LK:CFP, P09429.
T1 chain: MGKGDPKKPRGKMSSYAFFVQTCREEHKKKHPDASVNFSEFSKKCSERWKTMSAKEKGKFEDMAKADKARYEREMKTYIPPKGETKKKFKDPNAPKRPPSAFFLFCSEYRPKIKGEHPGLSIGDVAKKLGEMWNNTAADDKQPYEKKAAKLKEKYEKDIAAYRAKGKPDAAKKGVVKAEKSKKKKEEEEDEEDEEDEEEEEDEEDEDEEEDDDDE
Briefly: FRET or BRET. The note with it: remark: other sources report otherwise.

In data set [1] the target is T2, Six His-tagged HMGB1 recombinant protein, P09429.
T2 chain: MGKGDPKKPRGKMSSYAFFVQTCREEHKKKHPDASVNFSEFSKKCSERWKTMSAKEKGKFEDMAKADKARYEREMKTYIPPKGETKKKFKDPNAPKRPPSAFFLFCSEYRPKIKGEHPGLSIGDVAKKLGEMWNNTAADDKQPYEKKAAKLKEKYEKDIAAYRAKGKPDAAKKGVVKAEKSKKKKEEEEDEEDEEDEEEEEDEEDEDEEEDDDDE
Particulars: remark: other sources report otherwise.

The target in data set [2] is T2, Six His-tagged HMGB1 recombinant …. Briefly: MALDI-TOF MS. Particulars: remark: other sources report otherwise.
Data set [3] deals with the molecule itself. Briefly: non-reducing SDS-PAGE and immunoblot. In general terms: In western blotting, separated proteins are transferred to a membrane and probed.

B1: YFP:LK:HMGB1, P09429 1-215 (natural protein)
chain: MGKGDPKKPRGKMSSYAFFVQTCREEHKKKHPDASVNFSEFSKKCSERWKTMSAKEKGKFEDMAKADKARYEREMKTYIPPKGETKKKFKDPNAPKRPPSAFFLFCSEYRPKIKGEHPGLSIGDVAKKLGEMWNNTAADDKQPYEKKAAKLKEKYEKDIAAYRAKGKPDAAKKGVVKAEKSKKKKEEEEDEEDEEDEEEEEDEEDEDEEEDDDDE
Molecule B1 had an FRET efficiency in the data set with HMGB1:LK:CFP, P09429 of 17.1%.

B2: Six His-tagged HMGB1 recombinant protein, P09429 1-215 (natural protein)
chain: MGKGDPKKPRGKMSSYAFFVQTCREEHKKKHPDASVNFSEFSKKCSERWKTMSAKEKGKFEDMAKADKARYEREMKTYIPPKGETKKKFKDPNAPKRPPSAFFLFCSEYRPKIKGEHPGLSIGDVAKKLGEMWNNTAADDKQPYEKKAAKLKEKYEKDIAAYRAKGKPDAAKKGVVKAEKSKKKKEEEEDEEDEEDEEEEEDEEDEDEEEDDDDE
The term stoichiometry N denotes the number of molecules, sites or subunits per partner or assembly. Turning to B2, in data set [1], the percent of molecules that are dimers amounted to 70%. Further, the stoichiometry N in data set [2] was 2.

B3: HMGB1 box B (aa 88-162) (domain or fragment, UniProt P09429 88-162, looked up)
chain: KFKDPNAPKRPPSAFFLFCSEYRPKIKGEHPGLSIGDVAKKLGEMWNNTAADDKQPYEKKAAKLKEKYEKDIAAY
Turning to B3, the binding result in data set [3] is given as “binds”.

The record behind these values is article PMC7815493 (Redox Biology, 2021).
